Experimental data published in the DeepSol protein solubility set.

test: soluble on expression in E. coli; label from the status in PepcDB or PDB records

Which “soluble on expression in E. coli” value does the source give for “MGSDKIHHHHHHMSNTLLFRPNEARALSALFRTGGLTRASLARELDLTRSTTGTLVQNLVDAGLARERESTTGNEAEPKVGRPGIVVEIAGSGVFFLGAYIGVNRIDVIAIDLSGTVRAKATRPFSGAASRPAQAMELIVALVDEVRRTLPPGARPHGLNVALPGFLDGDGETFHAAILGWHGVSLAQPISESIDLDVPVLLENDANAVAVAETYRSAPPDGKGDDSLVVLIENGVGGGIVSNGKLHRGQLGGAGEIGHMPIGEAGFVYDAVRPGRWETFIGKDALLARYAHISGVIGSLDAFIAVLASGDPTALACARDWARWLVRGLATLACVLQPGRIILAGSVSAIYPFVAEQTEALLAASLIEGYPTPRVETSSTGNDGPALGAAYLLHQAMLAGNTRPHMRDVAVL” here?
Its value is “not soluble”.

For “MGSDKIHHHHHHMGARLKHYGWGREGEGMNEAEQAFVLGRYKAKFGRDSFDTVEVAHLDDIKLREPRIVPPKSLSEICAVDVYHRAAHAYGKSYPDYVRGMLGDYDAAPDVVAYPRDEAEIAAVMDWAGGAGAALTPFGGGSSVCGGVECRVDGNRHKAAVTLDLRHLGKVLEVDATSRAALIQGGAYGPALEAQLKPHNVTLRHFPQSFEYSTLGGWIATRSGGHYASLYTHIDDFVESVRVVTPRGVLETRRLPGSGAGPSPDRMFIGSEGILGVISAAWMRLQSRPRFRAGASVRFPSFFAAARAVRAVAQAGLYPSNCRILDPQEAYNTGAADGSVAIMVLAFESGDHPVEPWMARALECCADHGGIREEAEASSGHLEGAAGLWRNAFIRMPYAREFLTPAGLINDTFETSITWERFESFHDSVKTVTEQAILDATGIKGEVTCRFTHVYPDGPAPYFSFHALGRHGELLEQWQAIKDAASDALIAAGGTITHHHAVGRDHRKWYDRQRPDLFAVALRAAKRELDPQAMLNPGVLIDP”, which “soluble on expression in E. coli” value is on record?
Its value is “not soluble”.

Which “soluble on expression in E. coli” value does the source give for “MSAPVADAPAAEIVYKIISSDGVVSKMSEKAVQQSKTLSNLIENLGYTIENIETRDPIPVTNVNGKTMAKVAELCEKHKADAIPEDNMNVLKTLTIPEWDQKFLKIEDEALFDLILASNFLDIKGLMYYGCKTVSNMAKGKTTAELREIFGINTDEQDAAEETAQKAAAEVA” here?
The value was “not soluble”.

Which “soluble on expression in E. coli” value does the source give for “MGSDKIHHHHHHMDVRRPIREAVNNRRKPKFLSVSFNQDDSCFSVALENGFRIFNTDPLTSKLSKTFKESATNQSRGTGIGYTRMLYRTNYIALVGGGKRPRHALNKLIIWDDLLQKETITLKFMSSIKDVFLSRIHIVVVLENTIEIFQFQTNPQRICPILDIPPNGSVDYVVCSSKHLQSQASQSQSKILEIIAFPSNKCVGQIQVADLSQIKYNSQNPKESALLPTSIIKAHKNPIKLVRLNRQGTMVATCSVQGTLIRIFSTHNGTLIKEFRRGVDKADIYEMSFSPNGSKLAVLSNKQTLHIFQIFETTNTETNTPDHSRANGSSHPLKNYIPKGLWRPKYLDSVWSICNAHLKNPIFDAHRNDNSGDVTHDNEFYKDRCRIGWCQDSNNREQDDSLVLVWQNSGIWEKFVILEKEQQDSSKTHYSLNESLRNEDTKSAGEPTRWELVRESWREL” here?
The value was “not soluble”.

Which “soluble on expression in E. coli” value does the source give for “MFRTAETSRDTLITTAYRLHRTRWRILEPYRRLKNALKKLQEDYLKSKEANALMRYVKLGQSVREVAMLEKQYWKLLNIPAQEGTEDANCYVVKIIELLEDTPTQLPPTRGIGALLQSTIGKPAEANVDTVLHDSLKARKSEDLVKECEGLYAQLYRLTKKYLGLRRLIKELHDKYEATRMFPIVPRYAMLKKMIKATLRAPEFADICHEQTE” here?
The value was “not soluble”.

Which “soluble on expression in E. coli” value does the source give for “MALFGKKSSDSSKSVAVPKAFTIQIDPSKFNLATKPSGPVHEQLETLKQKLTKLSSNVENNLMLVIRASTKKDKALASSAFEFDERYIQKGKFEVEYLTLAYLNFQQLDEADRKTVAHARMILKELERIAQFCLNIADKTEYIQLANIQVLHKDEYDLKLMGDDTAEMIKKAVEAFVSGNSKHATETLDMMKKIDDLYQKAVAKLKAEVNDSNIINSTGILSVVEHVHTCAEISCAIARHFC” here?
Its value is “soluble”.

With “MEKIFKVTSDSGIHARPATLLVNTASKFGSDINLEYNGKNVNLKSIMGVMSLGIQQNAEIKITANGDDAAQALAAIEETMKNEGLGE” as the sequence, how does the “soluble on expression in E. coli” value read?
Its value is “not soluble”.

For “QDFPQSLIIDSFLVNDGKTRGLNLHLDRFRTACLEHGYAHHEQLDAFFAEALRSIPATGQWFPRLEATPTELRIALRPAPQLRGTTTLTSVAAVRPTPKYKGLDLDYLAELRCSSTTDDALLVTPAGVIAETTTAAIIAWDGTKWMSMAPARLESVTESLLINSARAQGEMVVTAALTVPEAQKLNLWAVNSLHGVTPVTHIDEVALPSNPQRSALLRGWLSQSEENIAQV”, which “soluble on expression in E. coli” value is on record?
The value was “not soluble”.

For “MGSDKIHHHHHHMRAALAQGCDPMVLTGEVWPKWRIWTRDADRFLDDAPLNKLTAPAGIPLSSFRAATLKSVAERVSKGPLPDRAVWPWILALGARNTKRRSGLQYCPDCLRDDRIPYYRLQWRLAWHVGCEHHHCSLLDRCPHCRAPLEPHRLHAEDGHMAVCATCRGDLRDVGAITPCSDDAMAFQDAGDEAIRHGSGQFMAHPTETDAWFAGASFLSALLRRANRSDAEALHVFLERMGVAVPELPLNPGTGVELLGTAERHLLLGALWKLMRTDLADVSKYLQESGITRQGFVSKGERMPDLFAETFAQLPDNARGPRKQAVRDPGQPRPRHEVMRMWRRLQRKLEMSQR”, which “soluble on expression in E. coli” value is on record?
Its value is “not soluble”.

With “MGSDKIHHHHHHMLSRIAESLFWIGRYVERADGTARILDVHLERLNHLPTEERDNVARELLAVMGARPESDEFGLEELLHALAYDKQSATSIAGSLGAARENARRARETVSSGLWESLNTTYYGLNQHRKDVVGTYRFCHWVLERTAMVSGLADTTVSHDDSWLFLALGRSLERADMTARMLSTRDVLSAGMSWVNMLRCAGAYESFLRTRRAAFGDQHAAEFLLLDRLFPRSIVYALRDADECLAKLDPSAQRVGFINDARRIVGQARTFLEFHRTDDLMSELPEHMERVQKAVSQASDAISRKYFNQADELAWVGEVS” as the sequence, how does the “soluble on expression in E. coli” value read?
The value was “not soluble”.

With “TSGTLYLVPTPIGNLQDMTFRAVATLKEVDFICAEDTRNTGLLLKHFDIATKQISFHEHNAYEKIPDLIDLLISGRSLAQVSDAGMPSISDPGHDLVKAAIDSDIAVVALPGA” as the sequence, how does the “soluble on expression in E. coli” value read?
The value was “not soluble”.

Which “soluble on expression in E. coli” value does the source give for “VRFVSELCALHGTDPVPMALIMEPVSKWSPSQVVDWMKGLDDCLQQYIKNFEREKISGDQLLRITHQELEDLGVSRIGHQELILEAVDLLCALNYGLETENLKTLSHKLNASAKNLQNFITGRRRSGHYDGRTSRKLPNDFLTSVVDLIGAAKSLLAWLDRSPFAAVTDYSVTRNNVIQLCLELTTIVQQDCTVYETENKILHVCKTLSGVCDHIISLSSDPLVSQSAHLEVIQLANIKPSEGLGMYIKSTYDGLHVITGTTENSPADRCKKIHAGDEVIQVNHQTVVGWQLKNLVNALREDPSGVILTLKKRPQSMLTSAPALLKNMRWKPLALQPLIPRSPTSSVATPSSTISTPTKRDSSALQDLYIPPPPAEPYIPRDEKGNLPCEDLRGHMVGKPVHKGSESPNSFLDQEYRKRFNIVEEDTVLYCYEYEKGRSSSQGRRESTPTYGKLRPISMPVEYNWVGDYEDPNKMKRDSRRENSLLRYMSNEKIAQEEYMFQRNSKKDTGKKSKKKGDKSNSPTHYSLLPSLQMDALRQDIMGTPVPETTLYHTFQQSSLQHKSKKKNKGPIAGKSKRRISCKDLGRGDCEGWLWKKKDAKSYFSQKWKKYWFVLKDASLYWYINEEDEKAEGFISLPEFKIDRASECRKKYAFKACHPKIKSFYFAAEHLDDMNRWLNRINMLTAGYAERERIKQEQDYWSESDKEEADTPSTPKQDSPPPPYDTYPRPPSMSCASPYVEAKHSRLSSTETSQSQSSHEEFRQEVTGSSAVSPIRKTASQRRSWQDLIETPLTSSGLHYLQTLPLEDSVFSDSAAISPEHRRQSTLPTQKCHLQDHYGPYPLAESERMQVLNGNGGKPRSFTLPRDSGFNHCCLMLQLVPVTHRMTCNPQRWRKRRRRRRRKGRQQGKT” here?
Its value is “soluble”.

Which “soluble on expression in E. coli” value does the source give for “MVLNSMRLFYILSQRDASSKNFNSSIYSRRSSRNSGCPGALFRSGRAVPFERVVGQQYFLKAYAILHSLNICRVEAGYIFDRKKTKFQDFLRFGRAGMASGVGGGSEGGPDDVKNSYIRVNGEPEIVYQ” here?
The value was “not soluble”.

With “MFSLSKTLAALLLCSAASLAQAAETAICYNCPPEWADWGTQLKAIADSTSVQVPLDNKNSGQALAQIVAEQAAPVADVVYYGVTFGLQAQKAGVVDTYKPKHWDDIPAGLKDPQGHWFAIHSGTLGIMVNVDALGGLPVPQSWADLLKPEYKGMVGYLDPSSAFVGYVSAVAINQAMGGSLDNFGPAIDYFQKLAKNSPIVPKQTAYARALSGELPILVDYDFNAYRARYKDKANVAFVIPKEGTIGVPYVMSMVAKAPHRANAEKVLDFVLSDAGQALWAKAYLRPVRSKMPADVAAQFLPDSDYARAGVVDYQRMAAVQEAFAARYLREVK” as the sequence, how does the “soluble on expression in E. coli” value read?
The value was “not soluble”.
